Results from patent US20260022153A1 (AMIDEBIO, LLC, priority 2017, published 2026).

What was measured:
IGF1 receptor (IGF1R) = IGF1 receptor (IGF1R) (Homo sapiens, UniProt P08069); assay: Binding affinity of insulin analogs to the IGF1 receptor (IGF1R); conditions: in the absence of glucose
[1] = after one year in acidic formulations; cited from earlier work
insulin receptor = insulin receptor (Homo sapiens, UniProt P06213); conditions: cited from earlier work

Substance | Kd (IGF1 receptor (IGF1R)) [nM] | AsnA21 deamidation [1] | fold lower affinity for the insulin receptor compared to wildtype insulin (insulin receptor) [fold]
SEQ ID NO: 5: single chain insulin analog […] (FVDQHLCGSHLVEALYLVCGERGFFYTPKTYDGKGIVEQCCTSICSLYQLENYCG) | 30.4 | – | –
SEQ ID NO: 7: single chain insulin analog […] (FVGQHLCGSHLVEALYLVCGERGFFYTPKTYDGKGIVEQCCTSICSLYQLENYCG) | 26.8 | – | –
insulin | 5.66 | 20-30% | –
Wakayama mutation ValA3Leu: insulin with a valine to leucine substitution at position A3 of Insulin Chain A, a naturally occurring mutation | – | – | 500
